Source: patent US20240067950A1, “MEANS AND METHODS FOR DETOXIFYING OCHRATOXIN A” (DSM Austria GmbH, priority 2020, published 2024)

Tests used:
[1] = Thermostability assay (residual OTA hydrolyzing activity after 10 min heat incubation); format: physicochemical; settings: 10 min incubation at 45, 55, 65, 75 or 85 ° C.; 0.1 mg/mL in 20 mM Tris-HCl pH 7.5; relative to 4° C. reference aliquot
Procedure: To determine the kinetic stability of the produced enzymes towards temperature, thermostability assays were performed. To this end, purified protein samples were diluted to a protein concentration of 0.1 mg/mL in 20 mM Tris-HCl buffer pH 7.5 and aliquots were incubated in a thermocycler for 10 min at either 45, 55, 65, 75 or 85 ° C. After this incubation, the aliquots were stored at 4° C. until further analysis. A reference aliquot was stored at 4° C. throughout the incubation. Subsequently, all aliquots were assayed for residual OTA hydrolyzing activity using the assay described in Example 2. Residual enzyme activities were calculated relative to the reference aliquot. The temperature range in which 50% of the initial activity was lost after the incubation, in relation to the reference aliquot was determined.

[2] = OTA hydrolyzing activity assay (specific activity); format: biochemical; settings: 37° C., 200 ng/mL OTA in 100 mM sodium phosphate buffer
Procedure: To determine the specific activity of recombinant target polypeptides produced e.g. as described in Example 1 above in units per liter (U/L), ochratoxin A (OTA) hydrolyzing activity assays were performed. One unit is defined as the amount of enzyme necessary for hydrolysis of 1 μmol or OTA in 1 min when using a starting OTA concentration of 0.495 μM.
OTA hydrolyzing activity assays were set up in a final volume of the reaction mixture of 200 μL, containing the recombinant enzyme preparation (preferably diluted to yield a volumetric activity of 1-10 mU/L), and 200 ng/mL OTA in 100 mM sodium phosphate buffer.
Specific activities were determined at pH 6.0 and pH 7.5. As soon as all components of the reaction mixture were mixed, OTA hydrolysis was followed at 37° C. on a fluorescence spectrophotometer (BioTek Synergy H1 MFD Multimode microplate reader) by following the reduction in fluorescence at ex/em 390 nm/450 nm.
For calculation of the specific activity, the initial linear part of the recorded fluorescence reduction curve was used. In addition to the fluorescence-based method described above, OTA hydrolysis was also determined by using the HPLC-MS method as described by Dellafiora et al. 2020, Toxins 12, 258, essentially confirming the fluorescence-based results. The specific activities for the polypeptides having amino acid sequences of SEQ ID NOs: 1-4 at different pH are shown in Table 1.

[3] = Piglet feeding trial, OTA in plasma and urine by HPLC-MS; format: in vivo, piglets; settings: for OTA concentration, plasma samples, Day 14 / OTA concentration, urine samples, Day 14: piglets; for % OTA reduction, plasma samples / % OTA reduction, urine samples: day 14
Procedure: To verify the applicability of the produced enzymes as food or feed additive, piglet feeding trials were conducted. To this end, sufficient amounts of the polypeptide of SEQ ID NO: 1 were produced by cultivation of E. coli transformants in bioreactors. The cell broth was homogenized and centrifuged. The supernatant was concentrated, dried by lyophilization and formulated as a powder by grinding. The enzymatic activity of the thus obtained lyophilized powder was determined, and the powder was mixed with feed for the feeding trial as described in the following.
Five piglet groups were studied based on the following five experimental diet setups: 1) Base feed; 2) base feed+50 ppb OTA; 3) base feed+50 ppb OTA+169 mU of the enzyme of SEQ ID NO: 1 per kg of feed; 4) base feed+500 ppb OTA; 5) base feed+500 ppb OTA+169 mU of the enzyme of SEQ ID NO: 1 per kg of feed.
Each trial group consisted of four piglets weighing approximately 7-8 kg, who were coming out from weaning and adapted to solid diet before being fed the experimental diet as described above. The duration of the feeding trial (i.e. actual days of feeding the experimental diet) was fourteen days. Collectively each trial group consumed around 15 kg of feed. No piglets fell sick to any unexpected disease throughout the feeding trial. Urine and blood samples were collected on day 0, just before starting the experimental diet, and on day 14.
Extraction of OTA was performed from plasma and urine samples for subsequent analysis by HPLC-MS. 200 μL of sample was thoroughly mixed with 800 μL of extraction solution (containing 99% of ethyl acetate and 1% of phosphoric acid, 85%) followed by centrifugation at 19000×g for 5 min for phase separation. 50 μL of upper phase was diluted with 50 μL of acetonitrile, followed by HPLC-MS analysis. The H PLC-MS method as described by Dellafiora et al. 2020, Toxins 12, 258 was used to determine the changes in OTA concentration in the samples taken during the trial upon consumption of the experimental diets. The results are shown in Table 3 using the diet setup numbering as indicated above.

[4] = diet setup 3: base feed+50 ppb OTA+169 mU enzyme per kg of feed
[5] = diet setup 5: base feed+500 ppb OTA+169 mU enzyme per kg of feed

| Molecule | Temperature range in which 50% of the initial activity was lost [1] | Specific OTA hydrolyzing activity ([2]; pH 6) [U/g] | Specific OTA hydrolyzing activity ([2]; pH 7.5) [U/g] | OTA concentration, plasma samples, Day 14 [3, 4] | OTA concentration, urine samples, Day 14 [3, 4] | % OTA reduction, plasma samples [3, 4] [%] | % OTA reduction, urine samples [3, 4] [%] | OTA concentration, plasma samples, Day 14 [3, 5] | OTA concentration, urine samples, Day 14 [3, 5] | % OTA reduction, plasma samples [3, 5] [%] | % OTA reduction, urine samples [3, 5] [%] |
| --- | --- | --- | --- | --- | --- | --- | --- | --- | --- | --- | --- |
| SEQ ID NO: 4: OTA-hydrolyzing polypeptide 4 of the present invention, recombinantly produced in E. coli (protein, OTA hydrolyzing polypeptide 4, OTA-hydrolyzing polypeptide 4 of the present invention, recombinantly produced in E. coli) MARDPLPADVRLLIRNNMASAHPQVPTIDGLDSKTQNDVFTAIDAINNDMRDLSLAIHENPELGFKEVKAHANLVKALSKLGFTITNPTSLETAFVATWSNGSGGRTFGFNAEYDALPGIGHACGHNLIAIVAVASAVGCKAAMEKQGISGTIKVIGSPAEEGGGGKIILFNEGVYDGLDACAMAHPGGGMPADGYDGQAPAEGKPASLARAGFIVDFVGKPAHAGAAPWMGVNAVDAAVLGYNGVSMLRQQLEPTVRVHGVIRGPNDWVNNIIPASSHVEYDVRAPDVKQAMAVRNKAIACFESAAHATGCSHTTQSKDKDIYAELRNSIRMAGVYADIMEEVFDQHIQRDGMTTASTDFGNITISACPAVHPMYLIETDGVNHTPEFTAGAATMDSHERSIKVAKGLALLGFKVLTDDVFAKKIKDEFEEQKKRLGA | 45-55 °C | 1.57 | 1.43 |  |  |  |  |  |  |  |  |
| SEQ ID NO: 1: OTA-hydrolyzing polypeptide 1 of the present invention, recombinantly produced in E. coli (protein, OTA hydrolyzing polypeptide 1, OTA-hydrolyzing polypeptide 1 of the present invention, recombinantly produced in E. coli) MSDHLPADVRDLIRQTMSRLENLVPPSAAFDDETQDAVFEAIDSIDGDMLALNKAIHDNPELGFHEVKAHHHLVQALIKLGFAVTNPTSLPTAFVATWSHGSGGRTFGFNAEYDALPGVGHACGHNLIAIVAVASAAGLKAALKARNIPGTIKVIGSPAEEGGGGKVILLNEGAYDGIDACVMAHPEGGVPGIDDDGSAYTSGPATLARAGFSVELFGKAAHAGAAPWLGVNALDAAVQGYTAVSMLRQQIEPTMRVHGVFDYGKEKWVQNIIPAYAKVEYSTRALDVKSTLELRKKVISCFESAATATGCTHKVSAPETEVYAELRNNVTLADAYADFMTTAFGQKIGRVGITTASTDFGNVTYKMPAIHPGFHLISKGVNHTPEFADAAGTLDAHERAIKVAKGLAMLGAKFLQDDKFAKEVKRKFDEFKKEVGELKLTDNENEVQEVNGVMKQEHIAEQVDEIWL | 45-55 °C | 0.11 | 1.20 | 37 ± 3 | 0.00 | 9 | 100.0 | 350 ± 25 | 25.18 | 15 | 48.4 |
| SEQ ID NO: 2: OTA-hydrolyzing polypeptide 2 of the present invention, recombinantly produced in E. coli (protein, OTA hydrolyzing polypeptide 2, OTA-hydrolyzing polypeptide 2 of the present invention, recombinantly produced in E. coli) MARDEIPADVKALIAQTVTALHGLAPPSAEFDDETQDAVFEAIDAIDGAMWDLNKKIHDHPELGFKEHKARANLVAALCKLGFTVTNPSSLPTAFVATYTQGHGGRTFGVDAEYDALPEVGHACGHNLIAVAAVAAAAGLKAALKARNIAGTIKLIGSPAEEGGGGKVILLNEGVYDCLDACVMAHPEGGMIGNDYDGSAYVGGPASLARAGFEIEFHGRGAHAGAAPWLGINALDAAVQGYTAVSMLRQQLEPTMRVHGIIQGSEKWAQNIIPSYAKVSYSTRALDVKKTLELRDKTVDCFASAAKATGCTYELTAPETEVYAELRNNEPLADAYADLMTHAFGQKIERRGMTTASTDFGNVTYHVPAIHPGFTIESDTVNHTAGFTEAAGKKGAHERTMKVAKGLAMVGAKFLADDKFAKDVRKAFEKFKKGAQ | 65-75 °C | 3.53 | 11.01 |  |  |  |  |  |  |  |  |
| SEQ ID NO: 3: OTA-hydrolyzing polypeptide 3 of the present invention, recombinantly produced in E. coli (protein, OTA hydrolyzing polypeptide 3, OTA-hydrolyzing polypeptide 3 of the present invention, recombinantly produced in E. coli) MARDEIPADVKALIAQTVTALHGLAPPSAEFDDETQDAVFEAIDAIDDAMWDLNKKIHDHPELGFEEHKARANLVAALCKLGFTVTNPSSLPTAFVATYTHGHGGRTFGVDAEYDALRDVGHACGHNLIAVAAVAAAAGLKAALKARNISGTVKLIGSPAEEGGGGKVILLNEGVYDCLDACVMAHPEGGMIGDDYDGSAYVGGPASLARAGFEIEFHGRGAHAGAAPWLGINALDAAVQGYTAVSMLRQQLEPTMRVHGIIQGSEKWAQNIIPSYAKVSYSTRALDVKKTLELRDKTVDCFASAAKATGCTYDVTAPETEVYAELRNNQPLADAYADLMTKAFGQKIERRGMTTASTDFGNVTYHLPAIHPGFTIESETVNHTKGFTEAAGKKDAHERTMKVAKGLAMVGAKFLADDKFAKDVRKAFEKFKREVE | 55-65 °C | 0.63 | 1.44 |  |  |  |  |  |  |  |  |
